# Where two headings read alike, the source gives them in different places.
# B1: FXR120-RXRα98 heterodimer (FXR_(120-486) with RXRα_(98-462)) (complex, human)
# chain 1: KKPRMGASAGRIKGDELCVVCGDRASGYHYNALTCEGCKGFFRRSITKNAVYKCKNGGNCVMDMYMRRKCQECRLRKCKEMGMLAECMYTGLLTEIQCKSKRLRKNVKQHADQTVNEDSEGRDLRQVTSTTKSCREKTELTPDQQTLLHFIMDSYNKQRMPQEITNKILKEEFSAEENFLILTEMATNHVQVLVEFTKKLPGFQTLDHEDQIALLKGSAVEAMFLRSAEIFNKKLPSGHSDLLEERIRNSGISDEYITPMFSFYKSIGELKMTQEEYALLTAIVILSPDRQYIKDREAVEKLQEPLLDVLQKLCKIHQPENPQHFACLLGRLTELRTFNHHHAEMLMSWRVNDHKFTPLLCEIWDVQ
# chain 2: MNPVSSSEDIKPPLGLNGVLKVPAHPSGNMASFTKHICAICGDRSSGKHYGVYSCEGCKGFFKRTVRKDLTYTCRDNKDCLIDKRQRNRCQYCRYQKCLAMGMKREAVQEERQRGKDRNENEVESTSSANEDMPVERILEAELAVEPKTETYVEANMGLNPSSPNDPVTNICQAADKQLFTLVEWAKRIPHFSELPLDDQVILLRAGWNELLIASFSHRSIAVKDGILLATGLHVHRNSAHSAGVGAIFDRVLTELVSKMRDMQMDKTELGCLRAIVLFNPDSKGLSNPAEVEALREKVYASLEAYCKHKYPEQPGRFAKLLLRLPALRSIGLKCLEHLFFFKLIGDTPIDTFLMEMLEAPHQMT
# B2: SRC1_(630-987) (domain or fragment, human, UniProt Q15788 630-987, looked up)
# chain: SHKLVQLLTTTAEQQLRHADIDTSCKDVLSCTGTSNSASANSSGGSCPSSHSSLTERHKILHRLLQEGSPSDITTLSVEPDKKDSASTSVSVTGQVQGNSSIKLELDASKKKESKDHQLLRYLLDKDEKDLRSTPNLSLDDVKVKVEKKEQMDPCNTNPTPMTKPTPEEIKLEAQSQFTADLDQFDQLLPTLEKAAQLPGLCETDRMDGAVTSVTIKSEILPASLQSATARPTSRLNRLPELELEAIDNQFGQPGTGDQIPWTNNTVTAINQSKSEDQCISSQLDELLCPPTTVEGRNDEKALLEQLVSFLSGKDETELAELDRALGIDKLVQGGGLDVLSERFPPQQATPPLIMEER
# modifications: biotin (biotin-labelled in the BLI assays; site not stated)
# Experiments:
# [1] = biological target: SRC1_(630-987) M3 mutant (NR-box3 mutated) (human) (UniProt Q15788); experiment: BLI
# SRC1_(630-987) = biological target: B2; experiment: SEC-MALS
# [2] = biological target: B1; experiment: BLI
# [3] = biological target: B1; experiment: BLI; remark: listed apart in the source
# [4] = biological target: B1; experiment: BLI; remark: listed apart in the source
fold reduction in affinity against wild type SRC1 (630-987) [1] [fold],stoichiometry N (SRC1_(630-987)),Kd [2] [nM],Kd [3] [nM],Kd [4] [nM],Binder
2,1,–,–,–,B1
–,–,43.1,49,23.7,B2
